Assay [1] deals with T1, cynomolgus monkey ZIP12-ECD-GST (cynomolgus monkey, UniProt Q95KA5 24-207).
T1 construct: extracellular domain; also called cyno ZIP12 fusion protein; cynomolgus monkey ZIP12-GST-ECD; not shown: glutathione S-transferase (GST) tag
The assay can be described thus: SPR single cycle kinetics, mAb captured on protein A, ZIP12-ECD-GST injected; cynomolgus monkey ZIP12-ECD-GST; Example 8 cross-species SCK (FIG. 12 average). The source says:
Surface plasmon resonance (SPR) is a label free biophysical technique that allows the direct measurement of biomolecular interactions. A single cycle kinetics (SCK) SPR direct binding assay was developed to characterise antibody binding to human, cyno, pig and canine ZIP12 fusion proteins. This assay was used to characterise the binding kinetics of the monoclonal antibody, 51B12 W99H_L1 against each of the four proteins (defined by kon, koff, KD). Single Cycle Kinetics (SCK) involves first capturing the mAb onto the protein A sensor surface and then sequentially injecting a series of concentrations of ZIP12-ECD-GST over the surface starting at the lowest concentration and ending with the highest concentration. The final concentration is followed by a dissociation phase where buffer only is passed across the surface followed by regeneration, where the remaining bound huZIP12-ECD-GST is removed from the surface by injection of a 10 mM Glycine pH 1.5 and 50 mM NaOH solution. The SCK is repeated for each monoclonal antibody providing duplicate data and the kinetics of each interaction is evaluated by the Biacore software.

The target of assay [2] is T2, huZIP12-ECD-GST (human, UniProt Q504Y0 24-202).
T2 construct: also called hZIP12-ECD-GST; human ZIP12-ECD-GST; not shown: glutathione S-transferase (GST) tag
T2 sequence (Q504Y0 24-202): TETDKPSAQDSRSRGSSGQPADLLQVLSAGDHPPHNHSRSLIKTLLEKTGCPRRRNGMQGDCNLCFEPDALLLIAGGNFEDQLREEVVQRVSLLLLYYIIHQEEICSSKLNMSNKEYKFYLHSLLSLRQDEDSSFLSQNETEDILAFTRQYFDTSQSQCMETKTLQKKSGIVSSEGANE
Nature of the assay: SPR single cycle kinetics (Biacore): mAb captured on protein A, ZIP12-ECD-GST injected; average data. (In general: SPR reads the build-up and loss of mass on a sensor chip optically.)

Assay [3] has as its target T1, cynomolgus monkey ZIP12-ECD-GST. The assay is described as above.
Assay [4] addresses T2, huZIP12-ECD-GST. The assay can be described thus: SPR single cycle kinetics, mAb captured on protein A, 3.12-800 nM huZIP12-ECD-GST. The procedure: (§1) Single Cycle Kinetics (SCK) involves first capturing the mAb onto the protein A sensor surface and then sequentially injecting a series of concentrations of huZIP12-ECD-GST over the surface starting at the lowest concentration and ending with the highest concentration. The final concentration is followed by a dissociation phase where buffer only is passed across the surface followed by regeneration, where the remaining bound huZIP12-ECD-GST is removed from the surface by injection of a 10 mM Glycine pH 1.5 and 50 mM NaOH solution. The SCK is repeated for each monoclonal antibody providing duplicate data and the kinetics of each interaction is evaluated by the Biacore software.
(§2) Referring to FIG. 6, there are shown the kinetic parameters obtained for all antibody variants when screened with the 3.12 nM to 800 nM huZIP12-ECD-GST. […] Affinity.

Assay [5] has as its target T2, huZIP12-ECD-GST. Nature of the assay: SPR single cycle kinetics (Biacore): mAb captured on protein A, huZIP12-ECD-GST injected at 3.12-800 nM. The method, then: as §1, §2
In assay [6] the target is T2, huZIP12-ECD-GST. The assay can be described thus: SPR single cycle kinetics (Biacore): mAb captured on protein A, huZIP12-ECD-GST injected at 2.34-600 nM, extended dissociation. The method, then:
as §1
A selection of the higher affinity antibody variants were re-tested at a lower concentration series with an extended dissociation time with the objective of obtaining a better assessment of the binding kinetics. Referring now to FIG. 7, there are shown the data for the monoclonal antibodies that were re-tested to optimise the binding kinetic data. Once again, three antibody variants, H3_W99H_L1, H3_W99HL2 and H3_W99H_VL-par, all appear to have a higher affinity than the parent antibody. The on-rate (ka), off-rate (kd) and overall affinity measurement (KD) are all improved compared to the 51B12 VH_VL_par parent antibody.

T1 sequence (Q95KA5 24-207): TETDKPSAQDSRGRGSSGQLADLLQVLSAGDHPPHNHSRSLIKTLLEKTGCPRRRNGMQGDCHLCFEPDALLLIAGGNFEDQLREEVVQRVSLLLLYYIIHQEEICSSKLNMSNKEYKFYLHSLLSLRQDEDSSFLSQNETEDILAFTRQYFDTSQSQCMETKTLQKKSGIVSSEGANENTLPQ

B1: H3_W99H_L1 (antibody, V domains shown)
VH: QVQLVESGGGVVQPGRSLRLSCAASGFTFSDYGMHWVRQAPGKGLEWVAYISSGGTTIYYADTVKGRFTISRDNSKNTLYLQMNSLRAEDTAVYYCARHTNLYAMDYWGQGTTVTVSS
VL: DIVLTQSPDSLAVSLGERATINCRASKSVSTQGYSYMHWYQQKPGQPPKFLIYLASNLESGVPDRFSGSGSGTDFTLTISSLQAEDVAVYYCQHSREVPYTFGGGTKVEIKR
notes: Fc null human IgG1 / human kappa
As for B1, the dissociation constant Kd in assay [1] was 6310 pM; in assay [4], around 500 pM; in assay [5], 533 pM; in assay [6], 314 pM. For the same molecule, the off-rate (koff) in assay [2] worked out at 0.000261 s⁻¹; in assay [3] it was 0.000218 s⁻¹; in assay [5], 4.98e-05 s⁻¹; in assay [6], 3.14e-05 s⁻¹. For the same molecule, the kon worked out at 64900 M⁻¹ s⁻¹ in assay [2], 34600 M⁻¹ s⁻¹ in assay [3], 93400 M⁻¹ s⁻¹ in assay [5] and 99900 M⁻¹ s⁻¹ in assay [6].

Broadly, the Kd is the free concentration of one partner at which half of the binding sites on the other are occupied at equilibrium, for simple one-to-one binding. Usually koff stands for a measure of how fast the partners let go of each other. The kon is the second-order rate constant of association.

Values taken from patent US20260109761A1 (IP2IPO INNOVATIONS, published 2026).
